Results on ten molecules are retold here after US20130164281A1 (SAMSUNG ELECTRONICS, published 2013).

The target in this assay is T1, human c-Met/Fc fusion protein (R&D Systems) (human, UniProt P08581 25-932).
T1 construct: Bought reagent; also called c-Met/Fc chimera (R&D Systems Cat. No. 358-MT/CF); not shown: Fc part of the bought fusion
As to the kind of experiment: competition ELISA on coated c-Met/Fc; competitor biotinylated chAbF46 (0.1 ug/ml). As to the method:
The antigens were coated by overnight incubation at a temperature of 4° C. using Nunc Immuno MaxiSort 96 well flat bottom microtiter plate (Fisher Cat. No. DIS-971-030J) and 1.0 μg/ml and 100 μl/well of c-Met/Fc chimera (R&D Systems Cat. No. 358-MT/CF). chAbF46 and 20 humanized antibodies were diluted and at a concentration of 10 μg/ml to 0.078 μg/ml, they were mixed with biotinylated chAbF46 (0.1 μg/ml, final conc.), followed by incubation at a temperature of 37° C. for 2 hours. The amount of biotinylated chAbF46 antibody binding to the antigen was measured using streptavidin-HRP (Sigma cat. No S5512) and an OPD substrate (Sigma Cat. No. P9187), and IC50 data were calculated from the results and the data are shown in Table 1 below (all units in nM).

Broadly, the IC50 is the concentration at which inhibition is half-maximal. Read a low IC50 as inhibition by little substance.

T1 sequence (P08581 25-932 limits assumed): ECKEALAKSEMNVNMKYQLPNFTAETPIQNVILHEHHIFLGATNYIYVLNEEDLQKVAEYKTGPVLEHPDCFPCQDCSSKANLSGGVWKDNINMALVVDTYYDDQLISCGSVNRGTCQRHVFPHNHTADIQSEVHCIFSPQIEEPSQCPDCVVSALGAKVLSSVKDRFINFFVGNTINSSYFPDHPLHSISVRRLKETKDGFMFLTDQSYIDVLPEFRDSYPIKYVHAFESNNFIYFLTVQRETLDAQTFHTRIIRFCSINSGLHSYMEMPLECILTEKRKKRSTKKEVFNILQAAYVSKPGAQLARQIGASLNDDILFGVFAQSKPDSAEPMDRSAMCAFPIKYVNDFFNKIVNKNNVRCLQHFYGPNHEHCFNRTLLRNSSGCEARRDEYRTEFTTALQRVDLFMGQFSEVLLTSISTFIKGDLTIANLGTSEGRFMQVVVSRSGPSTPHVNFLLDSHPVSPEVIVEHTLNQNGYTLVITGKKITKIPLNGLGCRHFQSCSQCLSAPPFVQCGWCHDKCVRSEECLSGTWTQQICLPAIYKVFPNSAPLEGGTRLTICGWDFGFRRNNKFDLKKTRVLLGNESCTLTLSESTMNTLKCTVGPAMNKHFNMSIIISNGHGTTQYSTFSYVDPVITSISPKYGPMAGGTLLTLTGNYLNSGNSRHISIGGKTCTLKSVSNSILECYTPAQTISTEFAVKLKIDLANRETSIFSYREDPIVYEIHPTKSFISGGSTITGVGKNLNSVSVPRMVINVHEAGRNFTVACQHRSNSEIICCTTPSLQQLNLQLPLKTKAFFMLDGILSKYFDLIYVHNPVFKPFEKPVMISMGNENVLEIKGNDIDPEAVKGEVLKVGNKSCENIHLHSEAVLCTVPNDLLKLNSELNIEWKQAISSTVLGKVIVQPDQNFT

B1: deimmunized humanized antibody huAbF46 including a combination of AT-VH3 and AT-Vk2 (antibody, IgG1, V domains shown)
VH: EVQLVESGGGLVQPGGSLRLSCATSGFTFTDYYMSWVRQPPGKGLEWLGFIRNKANGYTTEYSASVKGRFTISRDNSKSTLYLQMNSLRAEDTATYYCARDNWFAYWGQGTLVTVSS
VL: DILMTQSPSSLSASVGDRVTITCKSSQSLLASGNQNNYLAWHQQKPGKAPKMLIIWASTRVSGVPDRFIGSGSGTDFTLTISSLQAEDVAVYYCQQSYSAPLTFGQGTKLEIK
notes: expressed from pANTVhG1 and pANTVk vectors (IgG1, kappa) in HEK293 cells; also called AT-VH3/AT-Vk2
Molecule B1 displayed an IC50 of 4.5 nM.

B2: deimmunized humanized antibody huAbF46 including a combination of AT-VH2 and AT-Vk2 (antibody, IgG1, V domains shown)
VH: EVKLVESGGGLVQPGGSLRLSCATSGFTFTDYYMSWVRQPPGKGLEWLGFIRNKANGYTTEYSASVKGRFTISRDNSKSTLYLQMNSLRAEDTATYYCARDNWFAYWGQGTLVTVSS
VL: DILMTQSPSSLSASVGDRVTITCKSSQSLLASGNQNNYLAWHQQKPGKAPKMLIIWASTRVSGVPDRFIGSGSGTDFTLTISSLQAEDVAVYYCQQSYSAPLTFGQGTKLEIK
notes: expressed from pANTVhG1 and pANTVk vectors (IgG1, kappa) in HEK293 cells; also called AT-VH2/AT-Vk2
As for B2, the IC50 stood at 1.28 nM.

B3: deimmunized humanized antibody huAbF46 including a combination of AT-VH5 and AT-Vk3 (antibody, IgG1, V domains shown)
VH: EVQLVESGGGLVQPGGSLRLSCATSGFTFTDYYMSWVRQPPGKGLEWLGFIRNKANGYTTEYSASVKGRFTISRDNSKNTLYLQMNSLRAEDTAVYYCARDNWFAYWGQGTLVTVSS
VL: DIQMTQSPSSLSASVGDRVTITCKSSQSLLASGNQNNYLAWHQQKPGKAPKMLIIWASTRVSGVPDRFIGSGSGTDFTLTISSLQAEDVAVYYCQQSYSAPLTFGQGTKLEIK
notes: expressed from pANTVhG1 and pANTVk vectors (IgG1, kappa) in HEK293 cells; also called AT-VH5/AT-Vk3
In the case of B3, the half-maximal inhibitory concentration (IC50) was 1.57 nM.

B4: deimmunized humanized antibody huAbF46 including a combination of AT-VH1 and AT-Vk3 (antibody, IgG1, V domains shown)
VH: EVKLVESGGGLVQPGGSLRLSCATSGFTFTDYYMSWVRQPPGKGLEWLGFIRNKANGYTTEYSASVKGRFTISRDNSKSTLYLQMNSLRAEDSATYYCARDNWFAYWGQGTLVTVSS
VL: DIQMTQSPSSLSASVGDRVTITCKSSQSLLASGNQNNYLAWHQQKPGKAPKMLIIWASTRVSGVPDRFIGSGSGTDFTLTISSLQAEDVAVYYCQQSYSAPLTFGQGTKLEIK
notes: expressed from pANTVhG1 and pANTVk vectors (IgG1, kappa) in HEK293 cells; also called AT-VH1/AT-Vk3
Consider B4, for which the half-inhibitory concentration (IC50) is 2.3 nM.

B5: deimmunized humanized antibody huAbF46 including a combination of AT-VH2 and AT-Vk4 (antibody, IgG1, V domains shown)
VH: EVKLVESGGGLVQPGGSLRLSCATSGFTFTDYYMSWVRQPPGKGLEWLGFIRNKANGYTTEYSASVKGRFTISRDNSKSTLYLQMNSLRAEDTATYYCARDNWFAYWGQGTLVTVSS
VL: DIQMTQSPSSLSASVGDRVTITCKSSQSLLASGNQNNYLAWHQQKPGKAPKMLIIWASTRVSGVPDRFSGSGSGTDFTLTISSLQAEDVAVYYCQQSYSAPLTFGQGTKLEIK
notes: expressed from pANTVhG1 and pANTVk vectors (IgG1, kappa) in HEK293 cells; also called AT-VH2/AT-Vk4
Regarding B5, the IC50 came to 1.37 nM.

B6: deimmunized humanized antibody huAbF46 including a combination of AT-VH3 and AT-Vk4 (antibody, IgG1, V domains shown)
VH: EVQLVESGGGLVQPGGSLRLSCATSGFTFTDYYMSWVRQPPGKGLEWLGFIRNKANGYTTEYSASVKGRFTISRDNSKSTLYLQMNSLRAEDTATYYCARDNWFAYWGQGTLVTVSS
VL: DIQMTQSPSSLSASVGDRVTITCKSSQSLLASGNQNNYLAWHQQKPGKAPKMLIIWASTRVSGVPDRFSGSGSGTDFTLTISSLQAEDVAVYYCQQSYSAPLTFGQGTKLEIK
notes: expressed from pANTVhG1 and pANTVk vectors (IgG1, kappa) in HEK293 cells; also called AT-VH3/AT-Vk4
Molecule B6 gave an IC50 of 1.81 nM.

B7: deimmunized humanized antibody huAbF46 including a combination of AT-VH3 and AT-Vk3 (antibody, IgG1, V domains shown)
VH: EVQLVESGGGLVQPGGSLRLSCATSGFTFTDYYMSWVRQPPGKGLEWLGFIRNKANGYTTEYSASVKGRFTISRDNSKSTLYLQMNSLRAEDTATYYCARDNWFAYWGQGTLVTVSS
VL: DIQMTQSPSSLSASVGDRVTITCKSSQSLLASGNQNNYLAWHQQKPGKAPKMLIIWASTRVSGVPDRFIGSGSGTDFTLTISSLQAEDVAVYYCQQSYSAPLTFGQGTKLEIK
notes: expressed from pANTVhG1 and pANTVk vectors (IgG1, kappa) in HEK293 cells; also called AT-VH3/AT-Vk3
B7 returned an IC50 of 5.51 nM.

B8: deimmunized humanized antibody huAbF46 including a combination of AT-VH1 and AT-Vk2 (antibody, IgG1, V domains shown)
VH: EVKLVESGGGLVQPGGSLRLSCATSGFTFTDYYMSWVRQPPGKGLEWLGFIRNKANGYTTEYSASVKGRFTISRDNSKSTLYLQMNSLRAEDSATYYCARDNWFAYWGQGTLVTVSS
VL: DILMTQSPSSLSASVGDRVTITCKSSQSLLASGNQNNYLAWHQQKPGKAPKMLIIWASTRVSGVPDRFIGSGSGTDFTLTISSLQAEDVAVYYCQQSYSAPLTFGQGTKLEIK
notes: expressed from pANTVhG1 and pANTVk vectors (IgG1, kappa) in HEK293 cells; also called AT-VH1/AT-Vk2
Turning to B8, the 50% inhibitory concentration (IC50) was determined as 1.49 nM.

B9: deimmunized humanized antibody huAbF46 including a combination of AT-VH4 and AT-Vk2 (antibody, IgG1, V domains shown)
VH: EVQLVESGGGLVQPGGSLRLSCATSGFTFTDYYMSWVRQPPGKGLEWLGFIRNKANGYTTEYSASVKGRFTISRDNSKNTLYLQMNSLRAEDTATYYCARDNWFAYWGQGTLVTVSS
VL: DILMTQSPSSLSASVGDRVTITCKSSQSLLASGNQNNYLAWHQQKPGKAPKMLIIWASTRVSGVPDRFIGSGSGTDFTLTISSLQAEDVAVYYCQQSYSAPLTFGQGTKLEIK
notes: expressed from pANTVhG1 and pANTVk vectors (IgG1, kappa) in HEK293 cells; also called AT-VH4/AT-Vk2
B9 showed a 50% inhibitory concentration (IC50) of 3.13 nM.

B10: deimmunized humanized antibody huAbF46 including a combination of AT-VH1 and AT-Vk1 (antibody, IgG1, V domains shown)
VH: EVKLVESGGGLVQPGGSLRLSCATSGFTFTDYYMSWVRQPPGKGLEWLGFIRNKANGYTTEYSASVKGRFTISRDNSKSTLYLQMNSLRAEDSATYYCARDNWFAYWGQGTLVTVSS
VL: DILMTQSPSSLTASVGDRVTMTCKSSQSLLASGNQNNYLAWHQQKPGKAPKMLIIWASTRVSGVPDRFIGSGSGTDFTLTISSLQAEDVAVYYCQQSYSAPLTFGQGTKLEIK
notes: expressed from pANTVhG1 and pANTVk vectors (IgG1, kappa) in HEK293 cells; also called AT-VH1/AT-Vk1
Take B10: the concentration for half-maximal inhibition (IC50) is 1.48 nM.
